The target in assay [1] is HLA-B*45:06. Put plainly: IEDB peptide-MHC binding, purified MHC/competitive/fluorescence; filed as Kd, often an IC50 or EC50 that approximates it; ≥ and ≤ were set here for values at or beyond the usual limits of such assays. As to conditions: source organism: human gammaherpesvirus 4.
The target in assay [2] is HLA-B*40:13. The description is as above. The settings on record: source organism: human gammaherpesvirus 4.
Assay [3] addresses HLA-B*83:01. Described as above. The settings on record: source organism: human gammaherpesvirus 4.
The target in assay [4] is HLA-B*27:20. The assay is described as above. As to conditions: source organism: human gammaherpesvirus 4.
In assay [5] the target is HLA-B*15:42. The description is as above. The settings on record: source organism: human gammaherpesvirus 4.
In assay [6] the target is HLA-B*07:02. Put plainly: IEDB peptide-MHC binding, purified MHC/direct/fluorescence; filed as Kd, often an IC50 or EC50 that approximates it; ≥ and ≤ were set here for values at or beyond the usual limits of such assays. The settings on record: source organism: Influenza A virus (A/New Caledonia/20/1999(H1N1)).
In assay [7] the target is HLA-C*14:02. The assay is described as above. The settings on record: source organism: Influenza A virus (A/swine/Italy/1509-6/97(H1N1)).
Assay [8] has as its target HLA-B*46:01. Described as above. As to conditions: source organism: Influenza A virus (A/New Caledonia/20/1999(H1N1)).
The target in assay [9] is HLA-A*01:01. The description is as above. As to conditions: source organism: Influenza A virus (A/New Caledonia/20/1999(H1N1)).
The target of assay [10] is HLA-B*58:01. The assay is described as above. As to conditions: source organism: Influenza A virus (A/New Caledonia/20/1999(H1N1)).
Assay [11] addresses HLA-B*15:17. The description is as above. The settings on record: source organism: Influenza A virus (A/New Caledonia/20/1999(H1N1)).
Assay [12] addresses HLA-B*15:02. The description is as above. The settings on record: source organism: Influenza A virus(A/swine/Henan/8/2004(H9N2)).
For assay [13], the target named is HLA-B*08:03. The description is as above. The settings on record: source organism: Influenza A virus(A/swine/Henan/8/2004(H9N2)).
The target of assay [14] is HLA-C*06:02. The assay is described as above. The settings on record: source organism: Influenza A virus (A/swine/Italy/1509-6/97(H1N1)).
The target of assay [15] is HLA-A*02:11. The assay is described as above. As to conditions: source organism: Influenza A virus(A/swine/Henan/8/2004(H9N2)).
The target of assay [16] is HLA-A*03:01. Described as above. The settings on record: source organism: Influenza A virus (A/New Caledonia/20/1999(H1N1)).
Assay [17] has as its target HLA-A*31:01. The assay is described as above. The settings on record: source organism: Influenza A virus (A/New Caledonia/20/1999(H1N1)).
In assay [18] the target is HLA-A*11:01. Described as above. The settings on record: source organism: Influenza A virus (A/New Caledonia/20/1999(H1N1)).
Assay [19] concerns the target HLA-B*27:05. The assay is described as above. The settings on record: source organism: Influenza A virus (A/New Caledonia/20/1999(H1N1)).
Assay [20] concerns the target HLA-A*69:01. The description is as above. As to conditions: source organism: Influenza A virus (A/New Caledonia/20/1999(H1N1)).
For assay [21], the target named is HLA-B*15:01. The description is as above. The settings on record: source organism: Influenza A virus (A/New Caledonia/20/1999(H1N1)).
For assay [22], the target named is HLA-C*15:02. The assay is described as above. The settings on record: source organism: Influenza A virus (A/swine/Italy/1509-6/97(H1N1)).
In assay [23] the target is HLA-B*57:01. The assay is described as above. As to conditions: source organism: Influenza A virus (A/New Caledonia/20/1999(H1N1)).
Assay [24] deals with HLA-A*02:01. Described as above. The settings on record: source organism: Influenza A virus (A/New Caledonia/20/1999(H1N1)).
Assay [25] has as its target HLA-B*48:01. The description is as above. The settings on record: source organism: Influenza A virus (A/New Caledonia/20/1999(H1N1)).
Assay [26] concerns the target HLA-B*39:01. Put plainly: IEDB peptide-MHC binding, purified MHC/competitive/fluorescence; filed as Kd, often an IC50 or EC50 that approximates it; ≥ and ≤ were set here for values at or beyond the usual limits of such assays. As to conditions: source organism: Influenza A virus (A/swine/Italy/1509-6/97(H1N1)).
In assay [27] the target is HLA-A*68:02. The assay is described as above. As to conditions: source organism: Influenza A virus (A/swine/Italy/1509-6/97(H1N1)).
Assay [28] addresses HLA-B*15:09. Described as above. The settings on record: source organism: Influenza A virus (A/swine/Italy/1509-6/97(H1N1)).
Assay [29] concerns the target HLA-A*26:02. The assay is described as above. As to conditions: source organism: Influenza A virus (A/swine/Italy/1509-6/97(H1N1)).
In assay [30] the target is HLA-B*08:01. The description is as above. As to conditions: source organism: Influenza A virus (A/swine/Italy/1509-6/97(H1N1)).
In assay [31] the target is HLA-A*26:03. The description is as above. The settings on record: source organism: Influenza A virus (A/swine/Italy/1509-6/97(H1N1)).

Regarding AQRAAGPSV, the Kd (usually a measure of binding affinity in units of concentration) in assay [1] is 9.2 nM; in assay [2] it was 212 nM; in assay [3], at least 5000 nM; in assay [4] it was 0.7 nM; in assay [5], 1190 nM.
For WMACHSAAF, the Kd is 9800 nM in assay [6]; 43 nM in [7]; 756 nM in assay [8]; at least 20000 nM in assay [9]; at least 20000 nM in assay [10]; 189 nM in assay [11]. The Kd in assay [12] is 5 nM; in assay [13], 83 nM; in assay [14], at least 20000 nM; in [15], 60 nM; in [16], at least 20000 nM; in assay [17], at least 20000 nM. The Kd was at least 20000 nM in assay [18]; 6300 nM in [19]; at least 20000 nM in assay [20]; 18 nM in assay [21]; at least 20000 nM in assay [22]; at least 20000 nM in [23]. The Kd in assay [24] was at least 20000 nM; in assay [25], 1430 nM; in assay [26], 59.5 nM; in assay [27], 929 nM; in assay [28], 600 nM; in assay [29] it was 0.4 nM. Besides, the Kd came out at 77.2 nM in assay [30] and 158 nM in [31].

These data come from the Immune Epitope Database (IEDB).
